Laboratory results: the supplement of paper PMC10201428
± gives the standard deviation of the averaged measurements.

B1: library; a variant is named by its letters at N, in order (parent)
chain: ACATTTGTTGATACAACCATAAAATGATAATTACACCCATAAATTGATAATTATCACACCCANNNNNNNNNNNNNNCTCTGATCATAGTCAGACCAACATTGCTACGACCCGTATTCGCACCGACAC

Tests used:
[1] = variants of: B1; assay: relative integration efficiency (T-RL orientation) vs wild-type transposon end (log2 (normalized fold change)); transposon end mutated: right end (5 bp flank + 75 bp right end); higher = more efficient transposition; conditions: with VchCAST RNA-guided transposition machinery (E. coli BL21(DE3) host, lacZ target)
Method: (§1)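 Pooled, barcoded VchCAST (Tn6677) mini-transposon donor libraries; each variable transposon-end sequence sits in a fixed pDonor mini-transposon context (10-bp barcode and cargo not included). Left- or right-end libraries were co-transformed with pEffector (TniQ-Cascade, TnsABC, lacZ crRNA, T7, 0.1 mM IPTG) into E. coli BL21(DE3) and grown 18 h at 37 C. T-LR and T-RL junction amplicons were sequenced; output/input barcode fold change was normalised to the mean of four wild-type barcodes and log2-transformed. Two biological replicates; zero-count/undetected variants carry floor values (-10 / -15), censored here. Barcode uncoupling by PCR recombination adds noise.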

[2] = variants of: B1; assay: relative integration efficiency (T-LR orientation) vs wild-type transposon end (log2 (normalized fold change)); transposon end mutated: right end (5 bp flank + 75 bp right end); higher = more efficient transposition; conditions: with VchCAST RNA-guided transposition machinery (E. coli BL21(DE3) host, lacZ target)
Method: as §1

Variant: ACATTTGTTGATACAACCATGAAATGATAATTACACCCATAAATTGATAATTATCACACCCATAAATTGATATTGCCTCTGATCATAGTCAGACCAACATTGCTACGACCCGTATTCGCACCGACAC [TAAATTGATATTGC A21G]
- relative integration efficiency (log2) [1]: -0.564 ± 0.14
- relative integration efficiency (log2) [2]: -1.31 ± 0.14

Variant: ACATTTGTTGATACAACCATTAAATGATAATTACACCCATAAATTGATAATTATCACACCCATAAATTGATATTGCCTCTGATCATAGTCAGACCAACATTGCTACGACCCGTATTCGCACCGACAC [TAAATTGATATTGC A21T]
- relative integration efficiency (log2) [1]: 0.0476 ± 0.12
- relative integration efficiency (log2) [2]: -0.217 ± 0.052

Variant: ACATTTGTTGATACAACCATACAATGATAATTACACCCATAAATTGATAATTATCACACCCATAAATTGATATTGCCTCTGATCATAGTCAGACCAACATTGCTACGACCCGTATTCGCACCGACAC [TAAATTGATATTGC A22C]
- relative integration efficiency (log2) [1]: -0.874 ± 0.074
- relative integration efficiency (log2) [2]: -1.72 ± 0.82

Variant: ACATTTGTTGATACAACCATAGAATGATAATTACACCCATAAATTGATAATTATCACACCCATAAATTGATATTGCCTCTGATCATAGTCAGACCAACATTGCTACGACCCGTATTCGCACCGACAC [TAAATTGATATTGC A22G]
- relative integration efficiency (log2) [1]: -0.771 ± 0.018
- relative integration efficiency (log2) [2]: -1.09 ± 0.47

Variant: ACATTTGTTGATACAACCATATAATGATAATTACACCCATAAATTGATAATTATCACACCCATAAATTGATATTGCCTCTGATCATAGTCAGACCAACATTGCTACGACCCGTATTCGCACCGACAC [TAAATTGATATTGC A22T]
- relative integration efficiency (log2) [1]: -0.215 ± 0.042
- relative integration efficiency (log2) [2]: -0.148 ± 0.0031

Variant: ACATTTGTTGATACAACCATAACATGATAATTACACCCATAAATTGATAATTATCACACCCATAAATTGATATTGCCTCTGATCATAGTCAGACCAACATTGCTACGACCCGTATTCGCACCGACAC [TAAATTGATATTGC A23C]
- relative integration efficiency (log2) [1]: 0.346 ± 0.047
- relative integration efficiency (log2) [2]: 0.198 ± 0.087

Variant: ACATTTGTTGATACAACCATAAGATGATAATTACACCCATAAATTGATAATTATCACACCCATAAATTGATATTGCCTCTGATCATAGTCAGACCAACATTGCTACGACCCGTATTCGCACCGACAC [TAAATTGATATTGC A23G]
- relative integration efficiency (log2) [1]: -0.0394 ± 0.13
- relative integration efficiency (log2) [2]: -0.227 ± 0.71

Variant: ACATTTGTTGATACAACCATAATATGATAATTACACCCATAAATTGATAATTATCACACCCATAAATTGATATTGCCTCTGATCATAGTCAGACCAACATTGCTACGACCCGTATTCGCACCGACAC [TAAATTGATATTGC A23T]
- relative integration efficiency (log2) [1]: 1.42 ± 0.079
- relative integration efficiency (log2) [2]: 1.34 ± 0.053

Variant: ACATTTGTTGATACAACCATAAACTGATAATTACACCCATAAATTGATAATTATCACACCCATAAATTGATATTGCCTCTGATCATAGTCAGACCAACATTGCTACGACCCGTATTCGCACCGACAC [TAAATTGATATTGC A24C]
- relative integration efficiency (log2) [1]: 0.238 ± 0.12
- relative integration efficiency (log2) [2]: 0.1 ± 0.21

Variant: ACATTTGTTGATACAACCATAAAGTGATAATTACACCCATAAATTGATAATTATCACACCCATAAATTGATATTGCCTCTGATCATAGTCAGACCAACATTGCTACGACCCGTATTCGCACCGACAC [TAAATTGATATTGC A24G]
- relative integration efficiency (log2) [1]: 0.266 ± 0.047
- relative integration efficiency (log2) [2]: 0.156 ± 0.052

Variant: ACATTTGTTGATACAACCATAAATTGATAATTACACCCATAAATTGATAATTATCACACCCATAAATTGATATTGCCTCTGATCATAGTCAGACCAACATTGCTACGACCCGTATTCGCACCGACAC [TAAATTGATATTGC A24T]
- relative integration efficiency (log2) [1]: -0.125 ± 0.1
- relative integration efficiency (log2) [2]: -0.0829 ± 0.28

Variant: ACATTTGTTGATACAACCATAAAATGCTAATTACACCCATAAATTGATAATTATCACACCCATAAATTGATATTGCCTCTGATCATAGTCAGACCAACATTGCTACGACCCGTATTCGCACCGACAC [TAAATTGATATTGC A27C]
- relative integration efficiency (log2) [1]: -0.753 ± 0.18
- relative integration efficiency (log2) [2]: -0.281 ± 0.16

Variant: ACATTTGTTGATACAACCATAAAATGGTAATTACACCCATAAATTGATAATTATCACACCCATAAATTGATATTGCCTCTGATCATAGTCAGACCAACATTGCTACGACCCGTATTCGCACCGACAC [TAAATTGATATTGC A27G]
- relative integration efficiency (log2) [1]: -0.495 ± 0.11
- relative integration efficiency (log2) [2]: -0.445 ± 0.25

Variant: ACATTTGTTGATACAACCATAAAATGTTAATTACACCCATAAATTGATAATTATCACACCCATAAATTGATATTGCCTCTGATCATAGTCAGACCAACATTGCTACGACCCGTATTCGCACCGACAC [TAAATTGATATTGC A27T]
- relative integration efficiency (log2) [1]: -0.915 ± 0.17
- relative integration efficiency (log2) [2]: -0.49 ± 0.05

Variant: ACATTTGTTGATACAACCATAAAATGATCATTACACCCATAAATTGATAATTATCACACCCATAAATTGATATTGCCTCTGATCATAGTCAGACCAACATTGCTACGACCCGTATTCGCACCGACAC [TAAATTGATATTGC A29C]
- relative integration efficiency (log2) [1]: -0.793 ± 0.055
- relative integration efficiency (log2) [2]: -0.254 ± 0.12

Variant: ACATTTGTTGATACAACCATAAAATGATGATTACACCCATAAATTGATAATTATCACACCCATAAATTGATATTGCCTCTGATCATAGTCAGACCAACATTGCTACGACCCGTATTCGCACCGACAC [TAAATTGATATTGC A29G]
- relative integration efficiency (log2) [1]: -0.169 ± 0.087
- relative integration efficiency (log2) [2]: -0.293 ± 0.074

Variant: ACATTTGTTGATACAACCATAAAATGATTATTACACCCATAAATTGATAATTATCACACCCATAAATTGATATTGCCTCTGATCATAGTCAGACCAACATTGCTACGACCCGTATTCGCACCGACAC [TAAATTGATATTGC A29T]
- relative integration efficiency (log2) [1]: -0.372 ± 0.011
- relative integration efficiency (log2) [2]: 0.436 ± 0.063

Variant: ACATTTGTTGATACAACCATAAAATGATACTTACACCCATAAATTGATAATTATCACACCCATAAATTGATATTGCCTCTGATCATAGTCAGACCAACATTGCTACGACCCGTATTCGCACCGACAC [TAAATTGATATTGC A30C]
- relative integration efficiency (log2) [1]: -0.623 ± 0.12
- relative integration efficiency (log2) [2]: -0.195 ± 0.17

Variant: ACATTTGTTGATACAACCATAAAATGATAGTTACACCCATAAATTGATAATTATCACACCCATAAATTGATATTGCCTCTGATCATAGTCAGACCAACATTGCTACGACCCGTATTCGCACCGACAC [TAAATTGATATTGC A30G]
- relative integration efficiency (log2) [1]: -0.795 ± 0.13
- relative integration efficiency (log2) [2]: -0.2 ± 0.08

Variant: ACATTTGTTGATACAACCATAAAATGATATTTACACCCATAAATTGATAATTATCACACCCATAAATTGATATTGCCTCTGATCATAGTCAGACCAACATTGCTACGACCCGTATTCGCACCGACAC [TAAATTGATATTGC A30T]
- relative integration efficiency (log2) [1]: -0.464 ± 0.16
- relative integration efficiency (log2) [2]: -0.0553 ± 0.55

Variant: ACATTTGTTGATACAACCATAAAATGATAATTCCACCCATAAATTGATAATTATCACACCCATAAATTGATATTGCCTCTGATCATAGTCAGACCAACATTGCTACGACCCGTATTCGCACCGACAC [TAAATTGATATTGC A33C]
- relative integration efficiency (log2) [1]: 0.00253 ± 0.071
- relative integration efficiency (log2) [2]: 0.14 ± 0.18

Variant: ACATTTGTTGATACAACCATAAAATGATAATTGCACCCATAAATTGATAATTATCACACCCATAAATTGATATTGCCTCTGATCATAGTCAGACCAACATTGCTACGACCCGTATTCGCACCGACAC [TAAATTGATATTGC A33G]
- relative integration efficiency (log2) [1]: 0.137 ± 0.055
- relative integration efficiency (log2) [2]: -0.127 ± 0.057

Variant: ACATTTGTTGATACAACCATAAAATGATAATTTCACCCATAAATTGATAATTATCACACCCATAAATTGATATTGCCTCTGATCATAGTCAGACCAACATTGCTACGACCCGTATTCGCACCGACAC [TAAATTGATATTGC A33T]
- relative integration efficiency (log2) [1]: -0.264 ± 0.0049
- relative integration efficiency (log2) [2]: -0.243 ± 0.38
